One molecule from article PMC7755911 (Scientific Reports, 2020) can be followed below.

The target of this test is SARS-CoV-2 Receptor Binding Domain (RBD) (SARS-CoV-2, UniProt P0DTC2). Kind of test: ELISA. The following applies: both partners purified. A general note: An ELISA detects its analyte on a solid surface through an enzyme-linked reagent.

B1: NIH-CoVnb-112 (VHH)
VHH: DVQLQESGGGLVQPGGSLRLSCAASGLTLDYYAIGWFRQAPGKEREGVSCISSSDGSTYYADSVKGRFTTSRDNAKNTVYLQMNSLKPEDTAVYYCAAVPSTYYSGTYYYTCHPGGMDYWGKGTQVTVSS
notes: also called lead nanobody candidate; anti-SARS-CoV-2 RBD nanobody; source: E. coli BL21 (DE3), periplasm by osmotic shock, purified (HisTrap, Superdex 75)
Usually EC50 stands for the concentration giving half of the maximal effect. Low values mean a more potent agent, high ones a less potent agent. B1: it took 1.11 nM to reach a half-maximal effect (EC50).
